Consider one molecule from publication PMC9481577, “Structures reveal a key mechanism of WAVE regulatory complex activation by Rac1 GTPase” (Nature Communications, 2022).

The assay concerns the target T1, HSPC300 (subunit of the WRC) (human, UniProt Q8WUW1 1-75).
T1 construct: HSPC300, human, full length; source: E. coli, purified within the WRC
T1 sequence (looked up): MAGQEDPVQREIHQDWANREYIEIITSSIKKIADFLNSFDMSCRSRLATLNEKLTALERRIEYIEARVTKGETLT
Put plainly: cryo-EM structure; WRC^apo at 1.2 µM in 10 mM HEPES-KOH pH 7.0, 50 mM KCl, 1 mM MgCl2, 1 mM DTT, 5% (v/v) glycerol; 3.0 Å. The settings on record: both partners purified.

B1: WAVE1(1-230)-(GGS)6-WCA(485-559) (subunit of the WRC) (domain or fragment, human)
chain: MPLVKRNIDPRHLCHTALPRGIKNELECVTNISLANIIRQLSSLSKYAEDIFGELFNEAHSFSFRVNSLQERVDRLSVSVTQLDPKEEELSLQDITMRKAFRSSTIQDQQLFDRKTLPIPLQETYDVCEQPPPLNILTPYRDDGKEGLKFYTNPSYFFDLWKEKMLQDTEDKRKEKRKQKQKNLDRPHEPEKVPRAPHDRRREWQKLAQGPELAEDDANLLHKHIEVANGGGSGGSGGSGGSGGSGGSKRHPSTLPVISDARSVLLEAIRKGIQLRKVEEQREQEAKHERIENDVATILSRRIAVEYSDSEDDSEFDEVDWLE
notes: WAVE1, human, residues 1-230; (GGS)6 linker, written out from the printed formula; WAVE1, human, WCA, residues 485-559; source: E. coli, purified within the WRC
B1: the binding result is “binds”.
